Results on five molecules are retold here after patent publication US20220096654A1, “PYRROLOBENZODIAZEPINE-ANTIBODY CONJUGATES AND USES THEREOF” (ADC THERAPEUTICS SA, priority 2020, published 2022).

Bounds are passed on as bounds.

For assay [1], the system named is fLuc+ OCIM1 cells. In words: Established AML model in NSG mice, treatment 10 days post-injection. Type of assay: in vivo. How it is done:
(§1) NSG mice were transplanted with 7.5×10^6 fLuc+ OCIM1 cells i.v. At 10 days post-injection of AML cells, unconjugated antibody or ADCs were injected i.v. via a tail vein at a dose of 1 mg/kg or 5 mg/kg. Mice were regularly monitored for signs of morbidity for the duration of the experiment. For imaging, mice were injected intraperitoneally with 200 μl of 15 mg/mL D-luciferin (Regis Technologies) in PBS. Mice were subsequently anesthetized with 4% isoflurane and maintained at 2% isoflurane. Ten minutes after injection of D-luciferin, mice were placed with anterior side up inside a IVIS Lumina III (PerkinElmer). A sub-saturating image was captured using the auto-exposure setting in the Living Image software (v4.5). Quantification and preparation of images was also carried out using the same software.

The subject of assay [2] is fLuc+ OCIM1 cells. The assay can be described thus: AML model in NSG mice, treatment the day after cell injection. Type of assay: in vivo. As to conditions: for tumor (bioluminescence) signal: 1 mg/kg or 5 mg/kg i.v. the day after OCIM1 injection. How it is done:
as §1, with “7.5×10^6 luciferase expressing” for “7.5×10^6”, “On the following day,” for “At 10 days post-injection of AML cells,”, “rat IgG2b antibodies” for “antibody”

In another assay the test system is 293T (CD45-). The assay can be described thus: Cell viability assay 5 days (PrestoBlue), 293T. The assay is classed as cell-based, human. As to conditions: rat IgG2b ADC, n=3. How it is done: (§2) OCIM1, Jurkat and Nalm6 cells were seeded at a final concentration of 1.275×10^4/mL and for 5 days in presence of rat IgG2b Mab or ADC or medium (in triplicate) in wells of flat bottom 96-well plates. 293T cells were seeded at 9.3×10^3 cells per 100 uL per well in flat bottom 96-well plates and allowed to adhere the plate for up to 24 hours. 293T cells were subsequently cultured with rat IgG2b Mabs or ADC or medium (in triplicate wells) as described above. PrestoBlue® Cell viability Reagent (Thermo Fisher Scientific) was added to each and incubated for up to 1.5 hours. Fluorescence intensity from each well was detected using a FLUOstar OPTIMA microplate reader (BMG Labtech). Data was plotted using Prism 8.0 and sigmoid dose-response non-linear regression was used to determine EC50 values. Data points are mean±s.d. for representative experiments.

A further assay relates to Nalm6 (CD45-). In words: Cell viability assay 5 days (PrestoBlue), Nalm6. Type of assay: cell-based, human. To be noted: rat IgG2b ADC, n=3. How it is done: as §2
Another assay concerns human CD45+ cells. In words: Allogeneic stem cell transplant model in humanized NSG mice, comparison of payloads. The assay is classed as in vivo. As to conditions: 1 mg/kg. How it is done:
Adult NSG mice (Charles River Laboratories) were sublethally irradiated with 2.5 Gy in a ^137Cs irradiator. On the following day, mice were injected with 0.5×10^6 freshly thawed cryopreserved human CD34+ cells from a health donor were injected via the tail vein in 150 μL PBS using a 29 gauge MicroFine Plus insulin syringe (BD). Engraftment of human cells in the blood was assessed periodically from 6 weeks after transplantation. At 10 weeks post-transplant, humanized NSG mice were assigned into cohorts with similar median human CD45+ cell engraftment in the blood, as determined by flow cytometry. Mice were injected with PBS or 1 mg/kg YTH24.5-B1. Sixteen 16 days after treatment, mice were transplanted with 0.5×10^6 GFP+CD34+ cells from another healthy donor. Irradiated NSG […] were also transplanted with the GFP+CD34+ from the allogeneic healthy donor as a control for engraftment of the GFP+CD34+ cells. 8 weeks after transplantation of GFP+ cells, mice were culled and blood, spleen and bone marrow taken for analysis by flow cytometry.
Experimental schedule is as previously described in example 16 but with the following modifications. Humanized NSG mice at 10 weeks post-transplant were injected with PBS or 1 mg/kg YTH24.5-B1, YTH54.12-B1, Isotype-B1, YTH24.5-B4 and Isotype-3376. Isotype-B2 and YTH24.5-B2 was given at a dose of 5 mg/kg. Transplantation of 0.5×10^6 GFP+CD34+ from an allogeneic human donor and analysis at 8 weeks post-transplant of GFP+ cells was carried out as previously described.

B1: YTH24.5-B4: rat IgG2b anti-CD45 antibody YTH24.5 conjugated to non-cleavable PBD drug-linker B4 (drawing 46) (conjugate)
heavy: QVNLLQSGAALVKPGASVKLSCKASSYTFTDYYIHWVKQSHGKTLEWIGYINPKSGFTNYNEKFRRKATLTVDKSTNTAYMDISRLTSEDSATYYCTRRTGVIPMDAWGQGASVTVSSAQTTAPSVYPLAPGCGDTTSSTVTLGCLVKGYFPEPVTVTWNSGALSSDVHTFPAVLQSGLYTLTSSVTSSTWPSQTVTCNVAHPASSTKVDKKVERRNGGIGHKCPTCPTCHKCPVPELLGGPSVFIFPPKPKDILLISQNAKVTCVVVDVSEEEPDVQFSWFVNNVEVHTAQTQPREEQYNSTFRVVSALPIQHQDWMSGKEFKCKVNNKALPSPIEKTISKPKGLVRKPQVYVMGPPTEQLTEQTVSLTCLTSGFLPNDIGVEWTSNGHIEKNYKNTEPVMDSDGSFFMYSKLNVERSRWDSRAPFVCSVVHEGLHNHHVEKSISRPPGK
light: DVVMTQTPVSLSVSLGGQVSISCRSSQSFVSSDGNTYLNWYLQKPGQSPQLLIYKVSNRLSGVPDRFSGSGSGTDFTLKISRVEHDDLGVYYCGQASKIPLTFGSGTKLEIKRADAAPTVSIFPPSMEQLTSGGATVVCFVNNFYPRDISVKWKIDGSEQRDGVLDSVTDQDSKDSTYSMSSTLSLTKVEYERHNLYTCEVVHKTSSSPVVKSFNRNEC
By EC50 is commonly meant the concentration that produces a half-maximal response. B1: the “period of tumor regression / low tumor signal” value in the assay on fLuc+ OCIM1 cells [1] was “marginally longer period of low tumor signal than YTH24.5-B1”. Also, the “tumor (bioluminescence) signal” value in the assay on fLuc+ OCIM1 cells [2] is “Low/absent tumor signal”. In addition, the EC50 with 293T (CD45-) is more than 6 nM; in the assay with Nalm6 (CD45-), 0.162 nM. Besides, in the assay on human CD45+ cells, the “percentage GFP+ human CD34+ cells in the bone marrow (mean)” value came to 57.95%. Besides, the “mean % hCD45+ engraftment in the bone marrow” value with human CD45+ cells (8 weeks after allogeneic GFP+ cells, PBS 14.12%) was found to be 7.34%.

B2: YTH24.5-B7: rat IgG2b anti-CD45 antibody YTH24.5 conjugated to PBD drug-linker B7 (drawing 49) (conjugate)
heavy: QVNLLQSGAALVKPGASVKLSCKASSYTFTDYYIHWVKQSHGKTLEWIGYINPKSGFTNYNEKFRRKATLTVDKSTNTAYMDISRLTSEDSATYYCTRRTGVIPMDAWGQGASVTVSSAQTTAPSVYPLAPGCGDTTSSTVTLGCLVKGYFPEPVTVTWNSGALSSDVHTFPAVLQSGLYTLTSSVTSSTWPSQTVTCNVAHPASSTKVDKKVERRNGGIGHKCPTCPTCHKCPVPELLGGPSVFIFPPKPKDILLISQNAKVTCVVVDVSEEEPDVQFSWFVNNVEVHTAQTQPREEQYNSTFRVVSALPIQHQDWMSGKEFKCKVNNKALPSPIEKTISKPKGLVRKPQVYVMGPPTEQLTEQTVSLTCLTSGFLPNDIGVEWTSNGHIEKNYKNTEPVMDSDGSFFMYSKLNVERSRWDSRAPFVCSVVHEGLHNHHVEKSISRPPGK
light: DVVMTQTPVSLSVSLGGQVSISCRSSQSFVSSDGNTYLNWYLQKPGQSPQLLIYKVSNRLSGVPDRFSGSGSGTDFTLKISRVEHDDLGVYYCGQASKIPLTFGSGTKLEIKRADAAPTVSIFPPSMEQLTSGGATVVCFVNNFYPRDISVKWKIDGSEQRDGVLDSVTDQDSKDSTYSMSSTLSLTKVEYERHNLYTCEVVHKTSSSPVVKSFNRNEC
Take B2: in the assay on fLuc+ OCIM1 cells [2], the “tumor (bioluminescence) signal” value is recorded as “Increasing tumor signal in three mice”. The “mice developing tumor / tumor signal” value in the assay with fLuc+ OCIM1 cells [2] (1 mg/kg or 5 mg/kg i.v., cohorts of 5 mice) is recorded as 3/5. Further, the values for the EC50 in the assay with 293T (CD45-) and in the assay with Nalm6 (CD45-) were more than 6 nM and 0.905 nM, respectively.

B3: YTH54.12-B4: rat IgG2b anti-CD45 antibody YTH54.12 conjugated to non-cleavable PBD drug-linker B4 (drawing 46) (conjugate)
heavy: EVQLVESGGGLVQPGGSMKLSCAASGFTFSDYYMAWVRQAPKKGLEWVASMSFAGSSTYYGDSVKGRFTISRDNAKTTLYLQMNSLRSEDTATYYCARMYTTDYYLYWYFDFWGPGTMVTVSSAQTTAPSVYPLAPGCGDTTSSTVTLGCLVKGYFPEPVTVTWNSGALSSDVHTFPAVLQSGLYTLTSSVTSSTWPSQTVTCNVAHPASSTKVDKKVERRNGGIGHKCPTCPTCHKCPVPELLGGPSVFIFPPKPKDILLISQNAKVTCVVVDVSEEEPDVQFSWFVNNVEVHTAQTQPREEQYNSTFRVVSALPIQHQDWMSGKEFKCKVNNKALPSPIEKTISKPKGLVRKPQVYVMGPPTEQLTEQTVSLTCLTSGFLPNDIGVEWTSNGHIEKNYKNTEPVMDSDGSFFMYSKLNVERSRWDSRAPFVCSVVHEGLHNHHVEKSISRPPGK
light: DVQMTQSPSYLAASPGESVSISCKASKSISNYLAWYQQKPGEANKILIYSGSTLQSGTPSRFSGSGSGTDFSLTIRNLEPEDFAVYYCQQYDEKPLTFGSGTKLEIKRADAAPTVSIFPPSMEQLTSGGATVVCFVNNFYPRDISVKWKIDGSEQRDGVLDSVTDQDSKDSTYSMSSTLSLTKVEYERHNLYTCEVVHKTSSSPVVKSFNRNEC
B3: in the assay with fLuc+ OCIM1 cells [1] (cohorts of 5 mice, all tumor-bearing), the “mice alive at 60 days” value is 4/5. Further, the values for the EC50 with 293T (CD45-) and with Nalm6 (CD45-) were more than 6 nM and 0.715 nM, respectively.

B4: YTH54.12-B2: rat IgG2b anti-CD45 antibody YTH54.12 conjugated to PBD drug-linker B2 (drawing 44) (conjugate)
heavy: EVQLVESGGGLVQPGGSMKLSCAASGFTFSDYYMAWVRQAPKKGLEWVASMSFAGSSTYYGDSVKGRFTISRDNAKTTLYLQMNSLRSEDTATYYCARMYTTDYYLYWYFDFWGPGTMVTVSSAQTTAPSVYPLAPGCGDTTSSTVTLGCLVKGYFPEPVTVTWNSGALSSDVHTFPAVLQSGLYTLTSSVTSSTWPSQTVTCNVAHPASSTKVDKKVERRNGGIGHKCPTCPTCHKCPVPELLGGPSVFIFPPKPKDILLISQNAKVTCVVVDVSEEEPDVQFSWFVNNVEVHTAQTQPREEQYNSTFRVVSALPIQHQDWMSGKEFKCKVNNKALPSPIEKTISKPKGLVRKPQVYVMGPPTEQLTEQTVSLTCLTSGFLPNDIGVEWTSNGHIEKNYKNTEPVMDSDGSFFMYSKLNVERSRWDSRAPFVCSVVHEGLHNHHVEKSISRPPGK
light: DVQMTQSPSYLAASPGESVSISCKASKSISNYLAWYQQKPGEANKILIYSGSTLQSGTPSRFSGSGSGTDFSLTIRNLEPEDFAVYYCQQYDEKPLTFGSGTKLEIKRADAAPTVSIFPPSMEQLTSGGATVVCFVNNFYPRDISVKWKIDGSEQRDGVLDSVTDQDSKDSTYSMSSTLSLTKVEYERHNLYTCEVVHKTSSSPVVKSFNRNEC
Regarding B4, the EC50 is more than 6 nM with 293T (CD45-) and 0.0279 nM in the assay with Nalm6 (CD45-).

B5: YTH54.12-B7: rat IgG2b anti-CD45 antibody YTH54.12 conjugated to PBD drug-linker B7 (drawing 49) (conjugate)
heavy: EVQLVESGGGLVQPGGSMKLSCAASGFTFSDYYMAWVRQAPKKGLEWVASMSFAGSSTYYGDSVKGRFTISRDNAKTTLYLQMNSLRSEDTATYYCARMYTTDYYLYWYFDFWGPGTMVTVSSAQTTAPSVYPLAPGCGDTTSSTVTLGCLVKGYFPEPVTVTWNSGALSSDVHTFPAVLQSGLYTLTSSVTSSTWPSQTVTCNVAHPASSTKVDKKVERRNGGIGHKCPTCPTCHKCPVPELLGGPSVFIFPPKPKDILLISQNAKVTCVVVDVSEEEPDVQFSWFVNNVEVHTAQTQPREEQYNSTFRVVSALPIQHQDWMSGKEFKCKVNNKALPSPIEKTISKPKGLVRKPQVYVMGPPTEQLTEQTVSLTCLTSGFLPNDIGVEWTSNGHIEKNYKNTEPVMDSDGSFFMYSKLNVERSRWDSRAPFVCSVVHEGLHNHHVEKSISRPPGK
light: DVQMTQSPSYLAASPGESVSISCKASKSISNYLAWYQQKPGEANKILIYSGSTLQSGTPSRFSGSGSGTDFSLTIRNLEPEDFAVYYCQQYDEKPLTFGSGTKLEIKRADAAPTVSIFPPSMEQLTSGGATVVCFVNNFYPRDISVKWKIDGSEQRDGVLDSVTDQDSKDSTYSMSSTLSLTKVEYERHNLYTCEVVHKTSSSPVVKSFNRNEC
For B5, the EC50 in the assay on 293T (CD45-) is more than 6 nM; in the assay on Nalm6 (CD45-) it was 1.56 nM.
